Results as given in patent US5843749, “Ehk and Ror tyrosine kinases” (Regeneron Pharmaceuticals, Inc., dated 1998).

Columns and labels:
[1] = biological target: rat trkB (full-length, pCMX-trkB or pLTR-trkB) (rat, UniProt Q63604); assay: DSS cross-linking of 125I-NGF to COS cells transfected with pCMX-trkB
Experimental: COS-M5 cells were transiently transfected with either the pCMX-LNGFR, pCMX-trkB, or control vector (pCMX) by the DEAE-dextran transfection protocol. Briefly, COS-M5 cells were plated at a density of 1.5 ×10^6 cells per 100 mm plate 24 hours prior to transfection. For transfection, the cells were cultured in serum-free DMEM containing 400 μg/ml of DEAE-dextran, 1 μM chloroquine, 2 mM glutamine, 20 μg/ml insulin, 5 μg/ml transferrin, 33 nM sodium selenite, and 5 μg of the appropriate DNA for 3 hours and 15 minutes at 37° C. in an atmosphere of 5% CO2. The transfection media was aspirated and replaced with phosphate-buffered saline with 10% DMSO for 2 min. Following this DMSO "shock", the COS-M5 cells were placed into DMEM with 10% FBS, 1% each of penicillin and streptomycin, and 2 mM glutamine for 48 hours.
Cells were harvested in phosphate-buffered saline containing 1 mM EDTA, 1 mg/ml glucose and 25 mM HEPES (PBS-versene) and resuspended at an appropriate density (generally 1 ×10^6 cells per ml) in ice-cold binding buffer A (PBS containing 1 mg/ml each of BSA and glucose). pCMX-trkB or pCMX vector transfected COS-M5 cells (4 ×10^5 cells) were incubated on ice with ^125I-labeled neurotrophins (final concentration estimated to be between 0.1 and 0.25 nM) for 90 minutes in the absence or presence of unlabeled NGF, BDNF or NT-3 (see FIGS. 1 and 3). […]

[2] = biological target: rat trkB (full-length, pCMX-trkB or pLTR-trkB) (rat) (UniProt Q63604)
[3] = biological target: human low affinity nerve growth factor receptor (LNGFR) (human, UniProt P08138); assay: competition of cross-linking, competitor 125I-NT-3, pCMX-LNGFR COS cells

Binder | binding result [1] | dose-response survival assay of trkB-expressing NIH3T3 cells, concentration at which activity is obvious [2] | binding result [3] | dose-response survival assay of trkB-expressing NIH3T3 cells, concentration at which effects are discernible [2] | dose-response survival assay of trkB-expressing NIH3T3 cells, effectiveness against BDNF [2]
Murine 2.5S NGF (ligand, radioiodinated (125I, lactoperoxidase method) where used as the labeled ligand) SSTHPVFHMGEFSVCDSVSVWVGDKTTATDIKGKEVTVLAEVNINNSVFRQYFFETKCRASNPVESGCRGIDSKHWNSYCTTTHTFVKALTTDEKQAAWRFIRIDTACVCVLSRKATR | no binding |  |  |  | 
brain derived neurotrophic factor (human BDNF, produced in CHO cells) (ligand, radioiodinated (125I, lactoperoxidase method) where used as the labeled ligand) HSDPARRGELSVCDSISEWVTAADKKTAVDMSGGTVTVLEKVPVSKGQLKQYFYETKCNPMGYTKEGCRGIDKRHWNSQCRTTQSYVRALTMDSKKRIGWRFIRIDTSCVCTLTIKRGR |  | 0.5 to 5 pM | binds |  | 
neurotrophin-3 (human NT-3, produced in CHO cells) (ligand, radioiodinated (125I, lactoperoxidase method) where used as the labeled ligand) YAEHKSHRGEYSVCDSESLWVTDKSSAIDIRGHQVTVLGEIKTGNSPVKQYFYETRCKEARPVKNGCRGIDDKHWNSQCKTSQTYVRALTSENNKLVGWRWIRIDTSCVCALSRKIGRT |  |  | binds | 50 pM | < 10 fold
